The supplement of paper PMC10567573

B1: TRIM63 (parent)
chain: ANPYWTSRGSSVSMSGGRFRCPTC
B2: TOR1AIP2 (parent)
chain: YTSSQKVSPIQIDGAGRTWQDSDT

Variants of: B1
Test: protein stability index of a GFP-peptide fusion (GPS, HEK-293T) (PSI 1-6); higher = more stable
Details: c terminus: a fixed tail appended
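Also: lentivirally expressed fusions sorted by FACS into six bins by GFP to DsRed ratio, PSI derived from sequencing read proportions per bin multiplied by bin number.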

Protein stability index, by site and new letter:
S11: N 2.32, P 2.14, Q 2.55, T 2.18, V 2.21, Y 1.8
V12: A 1.49, D 1.67, E 2.16, F 1.64, G 2.1, H 1.98, I 2.46, K 2.19, L 1.29, M 1.63, N 2.03, P 2.78, R 1.32, S 2.46, T 2.9, W 2.87, Y 1.69
S13: A 1.9, C 2.02, D 2.06, E 2.98, F 1.93, G 3.37, H 1.9, I 1.58, K 2.39, L 2.07, N 2.18, P 2.21, Q 2.13, R 1.52, T 1.83, V 1.89, W 1.79, Y 2.18
M14: F 2.04, G 1.83, H 2.21, K 1.85, L 2.21, N 2.03, P 2.64, Q 1.41, S 2.32, V 1.86
S15: A 2.94, C 2.02, D 2.3, E 2.1, F 2.61, H 1.87, I 1.4, L 2.03, N 1.01, P 2.09, Q 2.58, T 1.43, W 1.8, Y 1.57
G16: A 1.72, C 1.91, D 2.23, E 1.58, F 1.32, H 2.42, K 2.1, M 1.83, N 1.34, P 2.08, Q 1.7, R 1.05, T 1.96, V 1.3, W 1.8, Y 2.24
G17: A 1.84, C 1.98, D 1.43, E 1.7, F 1.72, H 1.53, I 2.27, L 1.81, M 2.73, N 1.75, P 1.76, Q 2.07, R 2.65, S 2.26, T 1.17, V 2.77, W 1.49
R18: A 1.89, C 1.4, D 2.16, E 2.48, F 1.46, G 1.44, I 1.37, K 1.44, M 2.49, N 2.24, P 1.65, Q 1.32, T 2.14, V 1.08
F19: A 2.04, C 3.67, D 2.75, E 3.29, G 3.02, H 2.12, I 2.34, M 2.79, N 2.24, P 2.25, Q 2.19, R 2.51, S 3.07, T 2.94, Y 2.04
R20: A 2.38, C 2.12, D 2.79, E 1.74, F 1.27, G 1.82, H 1.85, I 1.91, K 2.61, L 1.51, M 2.12, N 1.57, P 2.4, Q 1.84, S 2.32, T 1.78, V 2.13, W 2.43, Y 1.96
C21: E 3.46, F 1.76, G 2.86, I 2.67, K 2.97, L 2.32, M 3.26, N 2.77, P 2.72, R 2.77, T 2.23, V 1.9, W 1.71, Y 2.15
P22: C 1.89, D 2.22, F 2.97, H 2.39, I 2.75, K 1.98, L 1.24, M 1.97, N 2.5, Q 2.87, R 2.12, S 2.19, T 2.69, V 2.56
T23: A 1.87, D 1.71, E 1.69, F 1.45, G 3.11, H 2.28, K 3.23, L 2.58, M 2.44, N 2.03, P 2.26, Q 1.95, R 2.43, S 2.52, V 1.34, W 2.47, Y 1.75
C24: D 3.73, E 3.19, F 2.55, G 3.18, H 2.29, I 2.05, K 2.84, M 2.07, N 2.66, P 3.22, Q 2.12, R 4.13, S 2.88, T 2.69, V 2.3, Y 3.28

Variants of: B2
Test: as above
Details: c terminus: a fixed tail appended

Protein stability index of substitutions, site by site:
Y1: A 3.7, C 4.22, D 4.85, E 5.31, F 3.02, H 5.19, I 4.3, K 4.86, L 4.06, M 5.05, N 4.87, P 4.4, Q 4.64, R 4.8, S 4.77, T 4.68, V 4.26, W 3.6
T2: A 3.8, C 2.46, D 5.15, E 4.74, F 4.19, G 3.91, H 2.14, I 2.58, K 4.83, L 3.94, M 3.9, N 4.41, P 3.93, Q 3.17, R 4.72, S 4.31, W 2.83, Y 3.54
S3: A 3, C 3.55, D 4.32, E 3.87, F 2.95, G 3.61, H 4.38, I 3.13, K 3.82, L 3.18, M 3.01, N 4.21, P 2.57, Q 3.82, R 3.39, T 3.08, V 3.3, W 3.04, Y 2.81
S4: A 3.06, C 2.78, D 4.57, E 3.35, F 2.58, G 3.59, H 3.37, I 2.92, K 2.36, L 2.84, M 2.65, N 3.65, P 3.18, Q 3.25, R 3.23, T 3.34, V 3.27, Y 2.67
Q5: A 3.08, C 2.13, D 4.04, E 4.2, G 3.38, H 2.87, I 3.12, K 3.45, L 3.58, M 3.86, N 3.04, P 2.96, R 3.35, S 3.87, T 3.6, V 3.31, Y 2.34
K6: A 3.58, C 3.04, D 4.86, E 4.82, F 3.73, G 3.42, H 3.51, I 3.67, L 2.9, M 3.6, N 3.97, P 4.01, Q 3.76, R 3.41, S 3.51, T 4.03, V 3.52, W 3.33, Y 1.31
V7: A 3.41, C 2.67, D 3.67, E 3.46, F 3.64, G 3.96, H 3.58, I 2.9, K 4.03, L 3.12, M 2.51, N 3.97, P 3.6, Q 4.19, R 3.43, S 3.52, T 3.78, Y 1.54
